Reduction of binding against wt full-length a/Tif32, reduction of binding against GST-Rps3 wt and reduction of binding against the wt a/Tif32-CTD data for two molecules are collected here from publication PMC6868437.

Assay in all cases: pull-down
Test [1] addresses GST-Rps3, wt (yeast (S. cerevisiae)) (UniProt P05750).
In test [2] the target is rps3-R116D fused to GST (yeast (S. cerevisiae)) (UniProt P05750).
Test [3] has as its target GST-a/tif32-CTD-box32 (yeast (S. cerevisiae)) (UniProt P38249).
Test [4] deals with GST-a/tif32-CTD-box33 (yeast (S. cerevisiae)) (UniProt P38249).

Take “[35S]-labelled full-length a/Tif32 with box32 (from UniProt P38249 1-964) (natural protein)”: in test [1], the reduction of binding against wt full-length a/Tif32 stood at 50%. Further, in test [2], the reduction of binding against GST-Rps3 wt amounted to 35% and the reduction of binding against wt full-length a/Tif32 is 50%.

B1: [35S]-labelled uS3/Rps3, wt (natural protein)
chain: MVALISKKRKLVADGVFYAELNEFFTRELAEEGYSGVEVRVTPTKTEVIIRATRTQDVLGENGRRINELTLLVQKRFKYAPGTIVLYAERVQDRGLSAVAQAESMKFKLLNGLAIRRAAYGVVRYVMESGAKGCEVVVSGKLRAARAKAMKFADGFLIHSGQPVNDFIDTATRHVLMRQGVLGIKVKIMRDPAKSRTGPKALPDAVTIIEPKEEEPILAPSVKDYRPAEETEAQAEPVEA
modifications: [35S]-labelled
As to B1, the reduction of binding against the wt a/Tif32-CTD in test [3] and in test [4] was 80% each time.
